# Source: patent publication US11135223B2, “Compositions and methods for inhibiting Dkk-1” (YALE UNIVERSITY, priority 2016, dated 2021)
# System: CD4 T cells
# Assay: CD4 T cell activation and differentiation in vitro with Dkk-1 or Wnt3a
# Type: cell-based, mice
# Excerpt: FIG. 5, comprising FIG. 5A through FIG. 5E, depicts results of experiments showing Dkk-1 induces TH2 cell polarization. FIG. 5A depicts lungs harvested for immunohistochemistry of CD3 (dark brown), CD41 (blue) and isotype control antibodies of lungs from Dkk-1^d/d mice and their wildtype littermate controls challenged with HDM extract allergen. Orange arrowheads in the images indicate co-localized CD3 T cells with CD41^+ platelets. FIG. 5B depicts ELISA analysis of Dkk-1 from plasma samples from Dkk-1^d/d mice (n=5) collected 24 hours after challenge with 50 μg HDM. FIG. 5C depicts ELISA analysis of splenic CD4 T cells from 6-8 week-old C57BL/6 mice were activated with anti-CD3 and anti-CD28 antibodies (Act) with or without Dkk-1 (30 ng/ml unless indicated) for 4 days. FIG. 5D depicts flow cytometry analysis of splenic CD4 T cells from 6-8 week-old C57BL/6 mice were activated with anti-CD3 and anti-CD28 antibodies (Act) with or without Dkk-1 (30 ng/ml unless indicated) for 4 days. FIG. 5E depicts ELISA analysis of naïve CD4 T cells stimulated anti-CD3 and anti-CD28 antibodies for 96 hr with or without Dkk-1.
# FIG. 6, comprising FIG. 6A through FIG. 6E, depicts results of experiments showing Dkk-1 induces TH2 cytokines in various T cell differentiation conditions. FIG. 6A depicts flow cytometry and ELISA analysis of naïve CD4 T cells were stimulated under TH1 polarization conditions for 96 hours with or without Dkk-1. FIG. 6B depicts flow cytometry and ELISA analysis of naïve CD4 T cells were stimulated under TH2 polarization conditions for 96 hours with or without Dkk-1. FIG. 6C depicts flow cytometry analysis of Foxp3, IL-17A, and IL-10 expression in splenic naïve CD4 T cells isolated and differentiated into iTreg for 5 days with 100 U/ml IL-2 and 1.5 ng/ml TGF-β with or without 30 ng/ml and 3 ng/ml of Dkk-1 treated during the culture. FIG. 6D depicts Gata-3 expression levels of splenic naïve CD4 T cells from 8 week-old C57BL/6 mice treated with Dkk-1 with varying doses of Dkk-1 (50, 30, 7.5 ng/ml) or Wnt3a (20% v/v) for 96 hours in the presence of anti-CD3 and anti-CD28 antibody stimulation. FIG. 6E depicts qPCR results of Tcf7 and Lef1 mRNA harvested from splenic naïve CD4 T cells from 8 week-old C57BL/6 mice stimulated with or without Dkk-1 (30 ng/ml) for 96 hours. All results were statistically non-significant. All experiments are a representative of two to three independent experiments. Student's t-test or one way-ANOVA analysis with Bonferonni's post-hoc test were performed. Small horizontal lines and error bars indicate the mean (±s.e.m.). ***, p<0.0001, **, p<0.005, *, p<0.05.
# FIG. 8, comprising FIG. 8A through FIG. 8G, depicts results of experiments showing Dkk-1 induces IL-10 in CD4 T cells via SGK-1 and p38 MAPK. FIG. 8A depicts ELISA analysis of naïve CD4 T cell differentiated into TH2 cells with or without Dkk-1 (30 ng/ml), SGK-1 inhibitor (2 μM) or p38 inhibitor (10 μM) for 96 hours. FIG. 8B depicts flow cytometry analysis of human naïve CD4 T cells (CD4^+CD25^−CD45RA^+) transduced with SGK-1 shRNA and selected with puromycin (0.5 μg/ml) for 48 hours. The selected cells were stimulated with anti-CD3 mAb (OKT3) and anti-CD28 mAb with or without Dkk-1 for 96 hr. For the last 5 hr of culture, stimulation cocktail (PMA/Ionomycin/Brefeldin A/Monensin) was added. FIG. 8C depicts intracellular staining with antibodies recognizing phospho-S6 kinase of splenic CD4^+CD25^− cells from 6 week-old C57BL/6 mice were isolated and activated with anti-CD3 and anti-CD28 mAb (2 μg/ml) with or without Dkk-1 (25 ng/ml) for indicated time points. FIG. 8D depicts intracellular staining with antibodies recognizing phospho-4E-BP1 of splenic CD4^+CD25^− cells from 6 week-old C57BL/6 mice were isolated and activated with anti-CD3 and anti-CD28 mAb (2 μg/ml) with or without Dkk-1 (25 ng/ml) for indicated time points. […]
molecule,measurement,setting,value
"Dkk-1: Wnt antagonist Dickkopf-1 protein, expressed in CHO cells, added to cells or injected into mice (protein, UniProt O94907 32-266, looked up) Dickkopf-related protein 1: TLNSVLNSNAIKNLPPPLGGAAGHPGSAVSAAPGILYPGGNKYQTIDNYQPYPCAEDEECGTDEYCASPTRGGDAGVQICLACRKRRKRCMRHAMCCPGNYCKNGICVSSDQNHFRGEIEETITESFGNDHSTLDGYSRRTTLSSKMYHTKGQEGSVCLRSSDCASGLCCARHFWSKICKPVLKEGQVCTKHRRKGSHGLEIFQRCYCGEGLSCRIQKDHHQASNSSRLHTCQRH","TH1 and TH17-associated cytokines (IFN-γ, IL-17A and IL-17F)",CD4 T cell activation in vitro,not induced
same,IFN-γ expression,"TH1 polarization conditions, 96 hours",suppressed
same,IL-4 expression,"TH2 cell differentiation, dose-dependent",enhanced
same,TGF-β-mediated Foxp3 expression,"iTreg differentiation with IL-2 and TGF-β, 5 days",inhibiting
same,Gata-3+ and c-Maf+ CD4 T cell population,"in vitro, Dkk-1 30 ng/ml",increased
same,amount of Dkk-1 that could induce Gata-3 expression,"naïve CD4 T cells, 96 hours, similar to Wnt3a",up to 30 ng/ml
same,TCF-1 or Lef expression,"naïve CD4 T cells, Dkk-1 30 ng/ml, 96 hours, qPCR",did not induce
same,levels of Dkk-1 that inhibited Gata-3 expression,"naïve CD4 T cells, non-physiologic high levels",> 50 ng/mL
same,phosphorylation of S6 kinase or 4E-BP-1,"splenic CD4+CD25- cells, Dkk-1 25 ng/ml",not altered
same,"IL-4, IL-10 and IL-13","total CD4 T cell activation in vitro, Dkk-1 30 ng/ml, 4 days",induced
